Data as given in publication PMC10710730, “ProNGF promotes brain metastasis through TrkA/EphA2 induced Src activation in triple negative breast cancer cells” (Experimental Hematology & Oncology, 2023).

Target: T1, EphA2, endogenous in MDA-MB-231 cells (human (endogenous in MDA-MB-231), UniProt P29317 24-976)
T1 construct: EphA2 receptor, endogenous in the human breast cancer cell line MDA-MB-231; also called EphA2 receptor; source: endogenous, MDA-MB-231 cells
Experiment: proximity ligation; Duolink in Situ-Red kit rabbit/goat on PFA-fixed cells on collagen I coated slides; TrkA/EphA2 red dots per cell counted; cells treated with proNGF (0.5 nM, 0 to 120 min), in MDA-MB-231 TrkA also with p75NTR siRNA
Conditions: partners not purified

T1 sequence (P29317 24-976): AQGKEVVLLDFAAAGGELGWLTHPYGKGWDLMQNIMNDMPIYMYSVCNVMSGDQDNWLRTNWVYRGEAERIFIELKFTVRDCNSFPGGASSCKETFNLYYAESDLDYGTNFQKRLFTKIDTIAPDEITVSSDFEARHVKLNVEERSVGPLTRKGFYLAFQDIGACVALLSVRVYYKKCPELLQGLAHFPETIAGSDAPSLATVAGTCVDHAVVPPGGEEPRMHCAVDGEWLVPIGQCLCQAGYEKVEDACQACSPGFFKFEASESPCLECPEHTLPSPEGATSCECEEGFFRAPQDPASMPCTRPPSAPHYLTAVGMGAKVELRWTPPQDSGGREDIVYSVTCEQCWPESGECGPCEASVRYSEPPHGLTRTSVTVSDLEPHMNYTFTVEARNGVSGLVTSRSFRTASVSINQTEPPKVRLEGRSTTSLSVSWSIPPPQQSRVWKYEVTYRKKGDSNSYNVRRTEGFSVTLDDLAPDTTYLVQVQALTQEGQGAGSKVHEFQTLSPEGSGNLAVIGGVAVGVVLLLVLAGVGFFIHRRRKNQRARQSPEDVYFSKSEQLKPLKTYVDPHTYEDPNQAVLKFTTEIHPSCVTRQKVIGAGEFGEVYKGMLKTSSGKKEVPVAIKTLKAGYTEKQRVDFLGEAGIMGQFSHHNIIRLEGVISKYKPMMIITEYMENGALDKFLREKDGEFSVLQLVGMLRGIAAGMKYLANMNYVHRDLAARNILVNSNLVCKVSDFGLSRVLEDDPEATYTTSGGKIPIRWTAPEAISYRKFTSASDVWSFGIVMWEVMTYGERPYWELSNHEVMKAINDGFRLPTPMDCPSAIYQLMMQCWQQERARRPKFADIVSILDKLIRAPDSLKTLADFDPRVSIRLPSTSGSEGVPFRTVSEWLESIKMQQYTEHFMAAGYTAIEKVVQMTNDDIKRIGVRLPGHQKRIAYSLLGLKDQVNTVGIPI

B1: TrkA (tyrosine kinase receptor TrkA, Tropomyosin kinase A), overexpressed in MDA-MB-231 cells (receptor)
chain: not shown
notes: TrkA, receptor of NGF and proNGF; also called MDA-MB-231-TrkA; MDA-MB-231 HA-TrkA
fold increase of TrkA/EphA2 PLA signal, proNGF 60 min over 0 min: 2 fold
